Results taken from patent US12099068B2, “Biomarkers for graft-versus-host disease” (Incyte Corporation, priority 2018, dated 2024).

B1: EDIL3 (protein, UniProt O43854 24-480, looked up)
EGF-like repeat and discoidin …: DICDPNPCENGGICLPGLADGSFSCECPDGFTDPNCSSVVEVASDEEEPTSAGPCTPNPCHNGGTCEISEAYRGDTFIGYVCKCPRGFNGIHCQHNINECEVEPCKNGGICTDLVANYSCECPGEFMGRNCQYKCSGPLGIEGGIISNQQITASSTHRALFGLQKWYPYYARLNKKGLINAWTAAENDRWPWIQINLQRKMRVTGVITQGAKRIGSPEYIKSYKIAYSNDGKTWAMYKVKGTNEDMVFRGNIDNNTPYANSFTPPIKAQYVRLYPQVCRRHCTLRMELLGCELSGCSEPLGMKSGHIQDYQITASSIFRTLNMDMFTWEPRKARLDKQGKVNAWTSGHNDQSQWLQVDLLVPTKVTGIITQGAKDFGHVQFVGSYKLAYSNDGEHWTVYQDEKQRKDKVFQGNFDNDTHRKNVIDPPIYARHIRILPWSWYGRITLRSELLGCTEEE
B2: NQO2 (protein, UniProt P16083 1-231, looked up)
Ribosyldihydronicotinamide …: MAGKKVLIVYAHQEPKSFNGSLKNVAVDELSRQGCTVTVSDLYAMNLEPRATDKDITGTLSNPEVFNYGVETHEAYKQRSLASDITDEQKKVREADLVIFQFPLYWFSVPAILKGWMDRVLCQGFAFDIPGFYDSGLLQGKLALLSVTTGGTAEMYTKTGVNGDSRYFLWPLQHGTLHFCGFKVLAPQISFAPEIASEEERKGMVAAWSQRLQTIWKEEPIPCTAHWHFGQ
B3: TRAF2 (protein, UniProt Q12933 2-501, looked up)
TNF receptor-associated …: AAASVTPPGSLELLQPGFSKTLLGTKLEAKYLCSACRNVLRRPFQAQCGHRYCSFCLASILSSGPQNCAACVHEGIYEEGISILESSSAFPDNAARREVESLPAVCPSDGCTWKGTLKEYESCHEGRCPLMLTECPACKGLVRLGEKERHLEHECPERSLSCRHCRAPCCGADVKAHHEVCPKFPLTCDGCGKKKIPREKFQDHVKTCGKCRVPCRFHAIGCLETVEGEKQQEHEVQWLREHLAMLLSSVLEAKPLLGDQSHAGSELLQRCESLEKKTATFENIVCVLNREVERVAMTAEACSRQHRLDQDKIEALSSKVQQLERSIGLKDLAMADLEQKVLEMEASTYDGVFIWKISDFARKRQEAVAGRIPAIFSPAFYTSRYGYKMCLRIYLNGDGTGRGTHLSLFFVVMKGPNDALLRWPFNQKVTLMLLDQNNREHVIDAFRPDVTSSSFQRPVNDMNIASGCPLFCPVSKMEAKNSYVRDDAIFIKAIVDLTGL
B4: XPNPEP2 (protein, UniProt O43895 22-649, looked up)
Xaa-Pro aminopeptidase 2: HTKPVDLGGQDVRNCSTNPPYLPVTVVNTTMSLTALRQQMQTQNLSAYIIPGTDAHMNEYIGQHDERRAWITGFTGSAGTAVVTMKKAAVWTDSRYWTQAERQMDCNWELHKEVGTTPIVTWLLTEIPAGGRVGFDPFLLSIDTWESYDLALQGSNRQLVSITTNLVDLVWGSERPPVPNQPIYALQEAFTGSTWQEKVSGVRSQMQKHQKVPTAVLLSALEETAWLFNLRASDIPYNPFFYSYTLLTDSSIRLFANKSRFSSETLSYLNSSCTGPMCVQIEDYSQVRDSIQAYSLGDVRIWIGTSYTMYGIYEMIPKEKLVTDTYSPVMMTKAVKNSKEQALLKASHVRDAVAVIRYLVWLEKNVPKGTVDEFSGAEIVDKFRGEEQFSSGPSFETISASGLNAALAHYSPTKELNRKLSSDEMYLLDSGGQYWDGTTDITRTVHWGTPSAFQKEAYTRVLIGNIDLSRLIFPAATSGRMVEAFARRALWDAGLNYGHGTGHGIGNFLCVHEWPVGFQSNNIAMAKGMFTSIEPGYYKDGEFGIRLEDVALVVEAKTKYPGSYLTFEVVSFVPYDRNLIDVSLLSPEHLQYLNRYYQTIREKVGPELQRRQLLEEFEWLQQHTEPLA
B5: SMAD1 (protein, UniProt Q15797 1-465, looked up)
Mothers against …: MNVTSLFSFTSPAVKRLLGWKQGDEEEKWAEKAVDALVKKLKKKKGAMEELEKALSCPGQPSNCVTIPRSLDGRLQVSHRKGLPHVIYCRVWRWPDLQSHHELKPLECCEFPFGSKQKEVCINPYHYKRVESPVLPPVLVPRHSEYNPQHSLLAQFRNLGQNEPHMPLNATFPDSFQQPNSHPFPHSPNSSYPNSPGSSSSTYPHSPTSSDPGSPFQMPADTPPPAYLPPEDPMTQDGSQPMDTNMMAPPLPSEINRGDVQAVAYEEPKHWCSIVYYELNNRVGEAFHASSTSVLVDGFTDPSNNKNRFCLGLLSNVNRNSTIENTRRHIGKGVHLYYVGGEVYAECLSDSSIFVQSRNCNYHHGFHPTTVCKIPSGCSLKIFNNQEFAQLLAQSVNHGFETVYELTKMCTIRMSFVKGWGAEYHRQDVTSTPCWIEIHLHGPLQWLDKVLTQMGSPHNPISSVS
B6: PIK3AP1 (protein, UniProt Q6ZUJ8 1-805, looked up)
Phosphoinositide 3-kinase …: MAASGVPRGCDILIVYSPDAEEWCQYLQTLFLSSRQVRSQKILTHRLGPEASFSAEDLSLFLSTRCVVVLLSAELVQHFHKPALLPLLQRAFHPPHRVVRLLCGVRDSEEFLDFFPDWAHWQELTCDDEPETYVAAVKKAISEDSGCDSVTDTEPEDEKVVSYSKQQNLPTVTSPGNLMVVQPDRIRCGAETTVYVIVRCKLDDRVATEAEFSPEDSPSVRMEAKVENEYTISVKAPNLSSGNVSLKIYSGDLVVCETVISYYTDMEEIGNLLSNAANPVEFMCQAFKIVPYNTETLDKLLTESLKNNIPASGLHLFGINQLEEEDMMTNQRDEELPTLLHFAAKYGLKNLTALLLTCPGALQAYSVANKHGHYPNTIAEKHGFRDLRQFIDEYVETVDMLKSHIKEELMHGEEADAVYESMAHLSTDLLMKCSLNPGCDEDLYESMAAFVPAATEDLYVEMLQASTSNPIPGDGFSRATKDSMIRKFLEGNSMGMTNLERDQCHLGQEEDVYHTVDDDEAFSVDLASRPPVPVPRPETTAPGAHQLPDNEPYIFKVFAEKSQERPGNFYVSSESIRKGPPVRPWRDRPQSSIYDPFAGMKTPGQRQLITLQEQVKLGIVNVDEAVLHFKEWQLNQKKRSESFRFQQENLKRLRDSITRRQREKQKSGKQTDLEITVPIRHSQHLPAKVEFGVYESGPRKSVIPPRTELRRGDWKTDSTSSTASSTSNRSSTRSLLSVSSGMEGDNEDNEVPEVTRSRSPGPPQVDGTPTMSLERPPRVPPRAASQRPPTRETFHPPPPVPPRGR
B7: PRTG (protein, UniProt Q2VWP7 36-1150, looked up)
Protogenin: FSELSFVKEPQDVTVTRKDPVVLDCQAHGEVPIKVTWLKNGAKMSENKRIEVLSNGSLYISEVEGRRGEQSDEGFYQCLAMNKYGAILSQKAHLALSTISAFEVQPISTEVHEGGVARFACKISSHPPAVITWEFNRTTLPMTMDRITALPTGVLQIYDVSQRDSGNYRCIAATVAHRRKSMEASLTVIPAKESKSFHTPTIIAGPQNITTSLHQTVVLECMATGNPKPIISWSRLDHKSIDVFNTRVLGNGNLMISDVRLQHAGVYVCRATTPGTRNFTVAMATLTVLAPPSFVEWPESLTRPRAGTARFVCQAEGIPSPKMSWLKNGRKIHSNGRIKMYNSKLVINQIIPEDDAIYQCMAENSQGSILSRARLTVVMSEDRPSAPYNVHAETMSSSAILLAWERPLYNSDKVIAYSVHYMKAEGLNNEEYQVVIGNDTTHYIIDDLEPASNYTFYIVAYMPMGASQMSDHVTQNTLEDVPLRPPEISLTSRSPTDILISWLPIPAKYRRGQVVLYRLSFRLSTENSIQVLELPGTTHEYLLEGLKPDSVYLVRITAATRVGLGESSVWTSHRTPKATSVKAPKSPELHLEPLNCTTISVRWQQDVEDTAAIQGYKLYYKEEGQQENGPIFLDTKDLLYTLSGLDPRRKYHVRLLAYNNIDDGYQADQTVSTPGCVSVRDRMVPPPPPPHHLYAKANTSSSIFLHWRRPAFTAAQIINYTIRCNPVGLQNASLVLYLQTSETHMLVQGLEPNTKYEFAVRLHVDQLSSPWSPVVYHSTLPEAPAGPPVGVKVTLIEDDTALVSWKPPDGPETVVTRYTILYASRKAWIAGEWQVLHREGAITMALLENLVAGNVYIVKISASNEVGEGPFSNSVELAVLPKETSESNQRPKRLDSADAKVYSGYYHLDQKSMTGIAVGVGIALTCILICVLILIYRSKARKSSASKTAQNGTQQLPRTSASLASGNEVGKNLEGAVGNEESLMPMIMPNSFIDAKGGTDLIINSYGPIIKNNSKKKWFFFQDSKKIQVEQPQRRFTPAVCFYQPGTTVLISDEDSPSSPGQTTSFSRPFGVAADTEHSANSEGSHETGDSGRFSHESNDEIHLSSVISTTPPNL
B8: CA12 (protein, UniProt O43570 25-354, looked up)
Carbonic anhydrase 12: APVNGSKWTYFGPDGENSWSKKYPSCGGLLQSPIDLHSDILQYDASLTPLEFQGYNLSANKQFLLTNNGHSVKLNLPSDMHIQGLQSRYSATQLHLHWGNPNDPHGSEHTVSGQHFAAELHIVHYNSDLYPDASTASNKSEGLAVLAVLIEMGSFNPSYDKIFSHLQHVKYKGQEAFVPGFNIEELLPERTAEYYRYRGSLTTPPCNPTVLWTVFRNPVQISQEQLLALETALYCTHMDDPSPREMINNFRQVQKFDERLVYTSFSQVQVCTAAGLSLGIILSLALAGILGICIVVVVSIWLFRRKSIKKGDNKGVIYKPATKMETEAHA
B9: LAIR-2 (protein, UniProt Q6ISS4 22-152, looked up)
Leukocyte-associated …: QEGALPRPSISAEPGTVISPGSHVTFMCRGPVGVQTFRLEREDRAKYKDSYNVFRLGPSESEARFHIDSVSEGNAGLYRCLYYKPPGWSEHSDFLELLVKESSGGPDSPDTEPGSSAGTVPGTEASGFDAP
B10: DDC (protein, UniProt P20711 1-480, looked up)
Aromatic-L-amino-acid …: MNASEFRRRGKEMVDYMANYMEGIEGRQVYPDVEPGYLRPLIPAAAPQEPDTFEDIINDVEKIIMPGVTHWHSPYFFAYFPTASSYPAMLADMLCGAIGCIGFSWAASPACTELETVMMDWLGKMLELPKAFLNEKAGEGGGVIQGSASEATLVALLAARTKVIHRLQAASPELTQAAIMEKLVAYSSDQAHSSVERAGLIGGVKLKAIPSDGNFAMRASALQEALERDKAAGLIPFFMVATLGTTTCCSFDNLLEVGPICNKEDIWLHVDAAYAGSAFICPEFRHLLNGVEFADSFNFNPHKWLLVNFDCSAMWVKKRTDLTGAFRLDPTYLKHSHQDSGLITDYRHWQIPLGRRFRSLKMWFVFRMYGVKGLQAYIRKHVQLSHEFESLVRQDPRFEICVEVILGLVCFRLKGSNKVNEALLQRINSAKKIHLVPCHLRDKFVLRFAICSRTVESAHVQRAWEHIKELAADVLRAERE

test system: plasma proteins; test: Plasma proteins modulated between baseline and day 28 in responders (CR, VGPR, PR; n = 19), Example 6 (Table 13); format: in vivo, human; details: plasma protein (OLINK NPX); responders (CR, VGPR, PR; n = 19); itacitinib 200 mg or 300 mg QD with corticosteroids; day 28 vs baseline
Procedure, shortened: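 Longitudinal comparison, day 28 versus baseline, with steroid-naive (N=10) and steroid-refractory (N=18) patients combined. Proteins measured by OLINK proximity extension, log2 normalized protein expression. Differences tested by t tests, ANOVA, Pearson correlation, P<0.05 significant.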

Molecule	Fold Change, Increased Expression from Baseline to Day 28	Fold Change, Decreased Expression from Baseline to Day 28
B1	1.12	–
B2	1.0895	–
B3	–	−1.4472
B4	1.285	–
B5	–	−1.3807
B6	–	−1.7193
B7	1.1026	–
B8	1.247	–
B9	–	−1.8117
B10	1.5485	–
